In assay [1] the target is T1, Human EREG (Biacore analyte) (human, UniProt O14944 63-108).
T1 construct: also called hEREG; human epiregulin
Kind of assay: SPR (Biacore T100), antibody captured on Protein A, EREG as analyte, single-cycle kinetics. As to the method: (§1) The affinity and association rate constant of an anti-EREG antibody for an antigen were measured by the single-cycle kinetics method of surface plasmon resonance assay using Biacore™-T100 (GE Healthcare Japan). HBS-EP+ (GE Healthcare Japan) was used for the running buffer, and an amine coupling kit (GE Healthcare Japan) was used to covalently bond Protein A to the CM5 chip (carboxymethyl dextran-coated chip). Each anti-EREG antibody was prepared so that approximately 350 RU will be captured by Protein A. Human EREG or cynomolgus EREG used as the analyte was prepared at 0, 0.7, 1.4, 2.8, 5.6, and 11.2 nM using HBS-EP+. Measurement was carried out by first allowing Protein A to capture the antibody solution, and then at a flow rate of 30 μL/min, successively injecting each of the 0, 0.7, 1.4, 2.8, 5.6, and 11.2 nM human EREG or cynomolgus EREG solutions for three minutes to allow reaction to take place. Then, the solution was switched to HBS-EP+, and the dissociation phase was measured for 15 minutes. After completion of the dissociation phase measurement, the sensor chip was washed with 25 mM NaOH and regenerated. The measurement at zero concentration was similarly carried out by allowing Protein A to capture the antibody solution, and performing three-minute HBS-EP+ injections successively for five times to allow reaction to take place, and then switching to HBS-EP+ to measure the dissociation phase for 15 minutes. After completion of the dissociation phase measurement, the sensor chip was washed with 25 mM NaOH and regenerated. A data analysis software exclusively for Biacore, Biacore T100 Evaluation Software Version 2.0.1, was used to perform kinetic analyses to calculate the association rate constant (kₐ), dissociation rate constant (kd), and the rate constant ratio from the obtained sensorgrams. To correct for the day-to-day differences in the measurement values, FIGS. 1 to 4 and Tables 16 and 19 show ratios based on taking the value of the control sample (cH-G1/cL-k) measured on the same day as 1.
In general terms: SPR reads the build-up and loss of mass on a sensor chip optically.

The target of assay [2] is T2, cynomolgus EREG (Biacore analyte) (cynomolgus monkey, UniProt O14944 63-108 (human entry), limits assumed).
T2 construct: also called cynomolgus monkey EREG; cEREG
The assay is described as above. Here is the method:
as §1

The target in assay [3] is T2, cynomolgus EREG (Biacore analyte). Nature of the assay: SPR (Biacore T100), antibody captured on Protein A, EREG as analyte; KD for monkey EREG over KD for human EREG. As to the method: as §1
Assay [4] shares this target. Kind of assay: SPR (Biacore T100); KD for monkey EREG over KD for human EREG. Here is the method:
as §1

Assay [5] has as its target T3, hsEREG-His (mature human EREG-6His fusion protein) (human, UniProt O14944 30-108).
T3 sequence: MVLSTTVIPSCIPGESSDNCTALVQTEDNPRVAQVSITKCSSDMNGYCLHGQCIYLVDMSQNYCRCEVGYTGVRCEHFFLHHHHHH
Kind of assay: cell-based or functional assay.

T2 sequence (O14944 other isoform, or with tags, fused parts or gaps limits assumed): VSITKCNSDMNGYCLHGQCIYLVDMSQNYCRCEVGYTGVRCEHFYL

B1: H87-G1d/LB-k (antibody, human IgG1, kappa, V domains shown)
VH: QDQLVQSGAEVKKPGASVKVSCKASGFNIKDTYIQWVRQAPGQGLEWMGRIDPLTGQTKYQEKFEGRVTITADTSTNTAYMELSSLRSEDTAVYYCVRSGTSFDFWGQGTLVTVSS
VL: DIQMTQSPSSLSASVGDRVTITCKASQDIHKYIAWYQQKPGQAPRLLIQYTSTLQPGVPSRFSGSGSGTDYTFTISSLQPEDIATYYCLQYDNLRTFGGGTKVEIKR
One may read the Kd as a measure of binding affinity in units of concentration. What is called koff is the first-order rate constant of dissociation. Usually kon stands for a measure of how fast the partners come together. As to B1, in assay [1], the Kd was found to be 0.15 nM, the koff worked out at 0.0002 s⁻¹ and the association rate constant (kon) came to 1.3e+06 M⁻¹ s⁻¹. In addition, in assay [2], the Kd is 5.2 nM, the dissociation rate constant (koff) was determined as 0.0045 s⁻¹ and the kon was found to be 860000 M⁻¹ s⁻¹. Also, the “cEREG KD (nM)/hEREG KD (nM)” value in assay [3] stood at 35.1 ratio. In assay [4], the “cEREG (nM)/hEREG (nM)” value amounted to 35.1 ratio.

B2: H121-G1d/LB-k (antibody, human IgG1, kappa, V domains shown)
VH: QDQLVQSGAEVKKPGASVKVSCKASGFNIKDTYIQWVRQAPGQGLEWMGRIDPLRGNTKYRERFEGRVTITADTSTNTAYMELSSLRSEDTAVYYCVRSGTLFDFWGQGTLVTVSS
VL: DIQMTQSPSSLSASVGDRVTITCKASQDIHKYIAWYQQKPGQAPRLLIQYTSTLQPGVPSRFSGSGSGTDYTFTISSLQPEDIATYYCLQYDNLRTFGGGTKVEIKR
Regarding B2, the “cEREG KD (nM)/hEREG KD (nM)” value in assay [3] was determined as 8.3 ratio.

B3: H123-G1d/LB-k (antibody, human IgG1, kappa, V domains shown)
VH: QDQLVQSGAEVKKPGASVKVSCKASGFNIKDTYIQWVRQAPGQGLEWMGRIDPLRGNTKYREKFERRVTITADTSTNTAYMELSSLRSEDTAVYYCVRSGTLFDFWGQGTLVTVSS
VL: DIQMTQSPSSLSASVGDRVTITCKASQDIHKYIAWYQQKPGQAPRLLIQYTSTLQPGVPSRFSGSGSGTDYTFTISSLQPEDIATYYCLQYDNLRTFGGGTKVEIKR
B3: the “cEREG KD (nM)/hEREG KD (nM)” value in assay [3] is 8.2 ratio.

B4: H119-G1d/LB-k (antibody, human IgG1, kappa, V domains shown)
VH: QDQLVQSGAEVKKPGASVKVSCKASGFNIKDTYIQWVRQAPGQGLEWMGRIDPLRGNTRYREKFEGRVTITADTSTNTAYMELSSLRSEDTAVYYCVRSGTLFDFWGQGTLVTVSS
VL: DIQMTQSPSSLSASVGDRVTITCKASQDIHKYIAWYQQKPGQAPRLLIQYTSTLQPGVPSRFSGSGSGTDYTFTISSLQPEDIATYYCLQYDNLRTFGGGTKVEIKR
In the case of B4, in assay [3], the “cEREG KD (nM)/hEREG KD (nM)” value was determined as 9.8 ratio.

B5: H120-G1d/LB-k (antibody, human IgG1, kappa, V domains shown)
VH: QDQLVQSGAEVKKPGASVKVSCKASGFNIKDTYIQWVRQAPGQGLEWMGRIDPLRGNTKRREKFEGRVTITADTSTNTAYMELSSLRSEDTAVYYCVRSGTLFDFWGQGTLVTVSS
VL: DIQMTQSPSSLSASVGDRVTITCKASQDIHKYIAWYQQKPGQAPRLLIQYTSTLQPGVPSRFSGSGSGTDYTFTISSLQPEDIATYYCLQYDNLRTFGGGTKVEIKR
Turning to B5, in assay [3], the “cEREG KD (nM)/hEREG KD (nM)” value came to 9.1 ratio.

B6: H206-G1d/L73-k (antibody, human IgG1, kappa, V domains shown)
VH: QDQLVQSGAEVKNPGASVKVSCKASGFNIKDTYIQWVRQAPGQGLEWMGRIDPLRRQTKYREKFEGRVTITADTSTNTAYMELSSLRSEDTAVYYCVRSGREFDFWGQGTLVTVSS
VL: DIQMTQSPSSLSASVGDRVTITCRASQDIHKYIAWYQQKPGQAPRLLIQYTSTLQPGVPSRFSGSGSGTDYTFTISSLQPEDIATYYCLQYEQLRTFGGGTKVEIKR
As to B6, in assay [1], binding was characterised by a dissociation constant (Kd) of 0.13 nM, the koff was 7.4e-05 s⁻¹ and the kon came to 550000 M⁻¹ s⁻¹. In assay [2], the affinity, expressed as Kd, was 0.45 nM; the dissociation rate constant (koff) was 0.00023 s⁻¹; the on-rate constant (kon) came to 500000 M⁻¹ s⁻¹. In addition, the “cEREG (nM)/hEREG (nM)” value in assay [4] was 3.4 ratio. Further, the “IC50 (read off the curve), growth ratio of EGFR_BAF cells with hsEREG-His 2.5 ng/mL” value in assay [5] is approximately 0.8 µg/mL.

B7: H118-G1d/LB-k (antibody, human IgG1, kappa, V domains shown)
VH: QDQLVQSGAEVKKPGASVKVSCKASGFNIKDTYIQWVRQAPGQGLEWMGRIDPLRGNRKYREKFEGRVTITADTSTNTAYMELSSLRSEDTAVYYCVRSGTLFDFWGQGTLVTVSS
VL: DIQMTQSPSSLSASVGDRVTITCKASQDIHKYIAWYQQKPGQAPRLLIQYTSTLQPGVPSRFSGSGSGTDYTFTISSLQPEDIATYYCLQYDNLRTFGGGTKVEIKR
For the molecule B7, in assay [3], the “cEREG KD (nM)/hEREG KD (nM)” value is 7.5 ratio.

B8: H206-G1d/L53-k (antibody, human IgG1, kappa, V domains shown)
VH: QDQLVQSGAEVKNPGASVKVSCKASGFNIKDTYIQWVRQAPGQGLEWMGRIDPLRRQTKYREKFEGRVTITADTSTNTAYMELSSLRSEDTAVYYCVRSGREFDFWGQGTLVTVSS
VL: DIQMTQSPSSLSASVGDRVTITCRASQDIHKYIAWYQQKPGQAPRLLIQYTSTLQPGVPSRFSGSGSGTDYTFTISSLQPEDIATYYCLQYDNLRTFGGGTKVEIKR
On to B8, for which, in assay [1], binding was characterised by a dissociation constant (Kd) of 0.17 nM, the off-rate constant (koff) was determined as 0.00011 s⁻¹ and the association rate constant (kon) was determined as 660000 M⁻¹ s⁻¹. In assay [2], the Kd turned out to be 0.94 nM, the dissociation rate constant (koff) worked out at 0.00061 s⁻¹ and the kon stood at 640000 M⁻¹ s⁻¹. For the same molecule, in assay [4], the “cEREG (nM)/hEREG (nM)” value was 5.2 ratio.

B9: H231-G1d/L73-k (antibody, human IgG1, kappa)
heavy: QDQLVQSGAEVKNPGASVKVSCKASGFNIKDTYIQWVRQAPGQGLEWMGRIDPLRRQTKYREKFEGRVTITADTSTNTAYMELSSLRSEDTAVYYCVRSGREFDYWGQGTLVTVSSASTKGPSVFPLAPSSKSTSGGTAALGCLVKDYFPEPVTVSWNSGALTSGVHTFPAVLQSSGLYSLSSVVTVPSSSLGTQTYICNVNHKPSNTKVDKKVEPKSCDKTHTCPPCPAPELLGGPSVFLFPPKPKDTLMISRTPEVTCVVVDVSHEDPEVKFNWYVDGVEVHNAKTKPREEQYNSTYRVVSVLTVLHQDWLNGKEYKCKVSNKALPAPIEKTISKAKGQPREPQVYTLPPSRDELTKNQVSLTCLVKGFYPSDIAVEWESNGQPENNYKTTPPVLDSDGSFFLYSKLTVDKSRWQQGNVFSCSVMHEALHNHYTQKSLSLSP
light: DIQMTQSPSSLSASVGDRVTITCRASQDIHKYIAWYQQKPGQAPRLLIQYTSTLQPGVPSRFSGSGSGTDYTFTISSLQPEDIATYYCLQYEQLRTFGGGTKVEIKRTVAAPSVFIFPPSDEQLKSGTASVVCLLNNFYPREAKVQWKVDNALQSGNSQESVTEQDSKDSTYSLSSTLTLSKADYEKHKVYACEVTHQGLSSPVTKSFNRGEC
In assay [1], B9 gave an equilibrium dissociation constant (Kd) of 0.14 nM, a koff of 8.7e-05 s⁻¹ and a kon of 620000 M⁻¹ s⁻¹. In assay [2], this molecule displayed a dissociation constant (Kd) of 0.66 nM, a dissociation rate constant (koff) of 0.00028 s⁻¹ and a kon of 420000 M⁻¹ s⁻¹. Also, the “cEREG (nM)/hEREG (nM)” value in assay [4] worked out at 3.5 ratio.

B10: H124-G1d/LB-k (antibody, human IgG1, kappa, V domains shown)
VH: QDQLVQSGAEVKKPGASVKVSCKASGFNIKDTRIQWVRQAPGQGLEWMGRIDPLRGNTKYREKFEGRVTITADTSTNTAYMELSSLRSEDTAVYYCVRSGTLFDFWGQGTLVTVSS
VL: DIQMTQSPSSLSASVGDRVTITCKASQDIHKYIAWYQQKPGQAPRLLIQYTSTLQPGVPSRFSGSGSGTDYTFTISSLQPEDIATYYCLQYDNLRTFGGGTKVEIKR
With B10, in assay [3], the “cEREG KD (nM)/hEREG KD (nM)” value was determined as 20.6 ratio.

B11: H131-G1d/LB-k (antibody, human IgG1, kappa, V domains shown)
VH: QDQLVQSGAEVKKPGASVKVSCKASGFNIKDTYIQWVRQAPGQGLEWMGRIDPLRRNTKYREKFEGRVTITADTSTNTAYMELSSLRSEDTAVYYCVRSRTLFDFWGQGTLVTVSS
VL: DIQMTQSPSSLSASVGDRVTITCKASQDIHKYIAWYQQKPGQAPRLLIQYTSTLQPGVPSRFSGSGSGTDYTFTISSLQPEDIATYYCLQYDNLRTFGGGTKVEIKR
On to B11, for which the “cEREG KD (nM)/hEREG KD (nM)” value in assay [3] is 4.7 ratio.

B12: H132-G1d/LB-k (antibody, human IgG1, kappa, V domains shown)
VH: QDQLVQSGAEVKKPGASVKVSCKASGFNIKDTYIQWVRQAPGQGLEWMGRIDPLRRNTKYREKFEGRVTITADTSTNTAYMELSSLRSEDTAVYYCVRSGRLFDFWGQGTLVTVSS
VL: DIQMTQSPSSLSASVGDRVTITCKASQDIHKYIAWYQQKPGQAPRLLIQYTSTLQPGVPSRFSGSGSGTDYTFTISSLQPEDIATYYCLQYDNLRTFGGGTKVEIKR
For B12, in assay [3], the “cEREG KD (nM)/hEREG KD (nM)” value stood at 4.6 ratio.

B13: H205-G1d/L73-k (antibody, human IgG1, kappa)
heavy: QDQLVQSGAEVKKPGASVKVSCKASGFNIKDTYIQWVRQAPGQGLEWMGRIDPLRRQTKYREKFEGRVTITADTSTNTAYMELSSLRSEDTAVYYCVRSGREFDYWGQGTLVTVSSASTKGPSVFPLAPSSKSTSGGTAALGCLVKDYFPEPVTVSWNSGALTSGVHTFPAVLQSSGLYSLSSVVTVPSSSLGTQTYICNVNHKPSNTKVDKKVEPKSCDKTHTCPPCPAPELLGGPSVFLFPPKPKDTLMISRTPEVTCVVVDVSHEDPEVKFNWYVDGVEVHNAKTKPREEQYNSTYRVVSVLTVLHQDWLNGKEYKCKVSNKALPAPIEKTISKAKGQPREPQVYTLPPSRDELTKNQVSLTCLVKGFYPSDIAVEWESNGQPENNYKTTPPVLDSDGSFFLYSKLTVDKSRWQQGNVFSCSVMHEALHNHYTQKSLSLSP
light: DIQMTQSPSSLSASVGDRVTITCRASQDIHKYIAWYQQKPGQAPRLLIQYTSTLQPGVPSRFSGSGSGTDYTFTISSLQPEDIATYYCLQYEQLRTFGGGTKVEIKRTVAAPSVFIFPPSDEQLKSGTASVVCLLNNFYPREAKVQWKVDNALQSGNSQESVTEQDSKDSTYSLSSTLTLSKADYEKHKVYACEVTHQGLSSPVTKSFNRGEC
In assay [1], B13 displayed a Kd of 0.19 nM, a koff of 7.5e-05 s⁻¹ and an on-rate (kon) of 390000 M⁻¹ s⁻¹. In assay [2], the Kd was 0.69 nM, the off-rate (koff) came out at 0.00026 s⁻¹ and the on-rate constant (kon) was found to be 370000 M⁻¹ s⁻¹. The “cEREG (nM)/hEREG (nM)” value in assay [4] is 3.1 ratio.

B14: H133-G1d/LB-k (antibody, human IgG1, kappa, V domains shown)
VH: QDQLVQSGAEVKKPGASVKVSCKASGFNIKDTYIQWVRQAPGQGLEWMGRIDPLRRNTKYREKFEGRVTITADTSTNTAYMELSSLRSEDTAVYYCVRSGTRFDFWGQGTLVTVSS
VL: DIQMTQSPSSLSASVGDRVTITCKASQDIHKYIAWYQQKPGQAPRLLIQYTSTLQPGVPSRFSGSGSGTDYTFTISSLQPEDIATYYCLQYDNLRTFGGGTKVEIKR
As to B14, the “cEREG KD (nM)/hEREG KD (nM)” value in assay [3] amounted to 6.1 ratio.

The values are drawn from patent publication US20160159919A1 (Chugai, published 2016).
